Data on four substances can be found in publication PMC6494836, “Mechanism-based tuning of insect 3,4-dihydroxyphenylacetaldehyde synthase for synthetic bioproduction of benzylisoquinoline alkaloids” (Nature Communications, 2019).

In the data set the test system is N[C@@H](Cc1ccc(O)c(O)c1)C(=O)O. Kind of data set: fluorometric H2O2 production assay (peroxidase-coupled). Particulars: O2 co-substrate; PBS; PLP cofactor; aldehyde synthase (H2O2-producing) activity; parentheses are 95% confidence interval. It is filed as biochemical, Bombyx mori. From the text:
fluorometric H2O2 production assay (peroxidase-coupled) on B. mori DHPAAS
For the substance B. mori DHPAAS (Bombyx mori; F79Y/Y80F), the Km is reported as 62.3 (49.5–78.5) µM and the kcat is given as 4.65 (4.30–5.03) min^−1.

Turning to B. mori DHPAAS (Bombyx mori; N192H), the Km is given as 36.5 (32.8–40.5) µM and the kcat is listed as 1.40 (1.35–1.44) min^−1.

As for “B. mori DHPAAS (Bombyx mori; F79Y/N192H/Y80F)”, the Km is given as 27.6 (17.1–42.8) µM and the kcat was 0.97 (0.87–1.09) min^−1.

As for B. mori DHPAAS (Bombyx mori), the Km is 41.7 (36.6–47.3) µM and the kcat is reported as 6.51 (6.27–6.76) min^−1.
